Test results from IntAct's records for PubMed 25910212.

B1: Zinc finger protein 41 (Homo sapiens), P51814-6 (parent)
chain: MAANGDSPPWSPALAAEGRGSSCEASVSFEDVTVDFSKEEWQHLDPAQRRLYWDVTLENYSHLLSVGYQIPKSEAAFKLEQGEGPWMLEGEAPHQSCSGEAIGKMQQQGIPGGIFFHCERFDQPIGEDSLCSILEELWQDNDQLEQRQENQNNLLSHVKVLIKERGYEHKNIEKIIHVTTKLVPSIKRLHNCDTILKHTLNSHNHNRNSATKNLGKIFGNGNNFPHSPSSTKNENAKTGANSCEHDHYEKHLSHKQAPTHHQKIHPEEKLYVCTECVMGFTQKSHLFEHQRIHAGEKSRECDKSNKVFPQKPQVDVHPSVYTGEKPYLCTQCGKVFTLKSNLITHQKIHTGQKPYKCSECGKAFFQRSDLFRHLRIHTGEKPYECSECGKGFSQNSDLSIHQKTHTGEKHYECNECGKAFTRKSALRMHQRIHTGEKPYVCADCGKAFIQKSHFNTHQRIHTGEKPYECSDCGKSFTKKSQLHVHQRIHTGEKPYICTECGKVFTHRTNLTTHQKTHTGEKPYMCAECGKAFTDQSNLIKHQKTHTGEKPYKCNGCGKAFIWKSRLKIHQKSHIGERHYECKDCGKAFIQKSTLSVHQRIHTGEKPYVCPECGKAFIQKSHFIAHHRIHTGEKPYECSDCGKCFTKKSQLRVHQKIHTGEKPNICAECGKAFTDRSNLITHQKIHTREKPYECGDCGKTFTWKSRLNIHQKSHTGERHYECSKCGKAFIQKATLSMHQIIHTGKKPYACTECQKAFTDRSNLIKHQKMHSGEKRYKASD
B2: Fructose-bisphosphate aldolase A (Homo sapiens), P04075-2 (parent)
chain: MARRKPEGSSFNMTHLSMAMAFSFPPVASGQLHPQLGNTQHQTELGKELATTSTMPYQYPALTPEQKKELSDIAHRIVAPGKGILAADESTGSIAKRLQSIGTENTEENRRFYRQLLLTADDRVNPCIGGVILFHETLYQKADDGRPFPQVIKSKGGVVGIKVDKGVVPLAGTNGETTTQGLDGLSERCAQYKKDGADFAKWRCVLKIGEHTPSALAIMENANVLARYASICQQNGIVPIVEPEILPDGDHDLKRCQYVTEKVLAAVYKALSDHHIYLEGTLLKPNMVTPGHACTQKFSHEEIAMATVTALRRTVPPAVTGITFLSGGQSEEEASINLNAINKCPLLKPWALTFSYGRALQASALKAWGGKKENLKAAQEEYVKRALANSLACQGKYTPSGQAGAAASESLFVSNHAY
partner: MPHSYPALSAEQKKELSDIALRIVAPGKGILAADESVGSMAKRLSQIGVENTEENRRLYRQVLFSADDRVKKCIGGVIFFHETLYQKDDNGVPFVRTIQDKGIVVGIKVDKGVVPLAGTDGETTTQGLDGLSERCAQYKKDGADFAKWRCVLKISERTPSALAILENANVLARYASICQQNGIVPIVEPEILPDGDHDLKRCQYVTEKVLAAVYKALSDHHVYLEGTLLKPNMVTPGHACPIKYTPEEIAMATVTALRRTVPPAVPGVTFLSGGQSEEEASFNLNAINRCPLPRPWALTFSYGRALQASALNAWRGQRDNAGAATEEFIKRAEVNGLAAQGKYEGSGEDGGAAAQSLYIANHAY
B3: U4/U6 small nuclear ribonucleoprotein Prp31 (Homo sapiens), Q8WWY3 (parent)
chain: MSLADELLADLEEAAEEEEGGSYGEEEEEPAIEDVQEETQLDLSGDSVKTIAKLWDSKMFAEIMMKIEEYISKQAKASEVMGPVEAAPEYRVIVDANNLTVEIENELNIIHKFIRDKYSKRFPELESLVPNALDYIRTVKELGNSLDKCKNNENLQQILTNATIMVVSVTASTTQGQQLSEEELERLEEACDMALELNASKHRIYEYVESRMSFIAPNLSIIIGASTAAKIMGVAGGLTNLSKMPACNIMLLGAQRKTLSGFSSTSVLPHTGYIYHSDIVQSLPPDLRRKAARLVAAKCTLAARVDSFHESTEGKVGYELKDEIERKFDKWQEPPPVKQVKPLPAPLDGQRKKRGGRRYRKMKERLGLTEIRKQANRMSFGEIEEDAYQEDLGFSLGHLGKSGSGRVRQTQVNEATKARISKTLQRTLQKQSVVYGGKSTIRDRSSGTASSVAFTPLQGLEIVNPQAAEKKVAEANQKYFSSMAEFLKVKGEKSGLMST
partner: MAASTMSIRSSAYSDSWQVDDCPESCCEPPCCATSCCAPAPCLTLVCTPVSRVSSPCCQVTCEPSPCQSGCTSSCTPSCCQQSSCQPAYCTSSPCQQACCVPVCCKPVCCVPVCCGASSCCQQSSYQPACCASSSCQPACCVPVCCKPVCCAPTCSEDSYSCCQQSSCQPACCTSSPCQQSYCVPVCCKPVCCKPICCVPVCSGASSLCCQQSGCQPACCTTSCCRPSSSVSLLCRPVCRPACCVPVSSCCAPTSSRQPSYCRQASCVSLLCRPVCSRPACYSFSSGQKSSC
B4: Progranulin (Homo sapiens), P28799 (parent)
chain: MWTLVSWVALTAGLVAGTRCPDGQFCPVACCLDPGGASYSCCRPLLDKWPTTLSRHLGGPCQVDAHCSAGHSCIFTVSGTSSCCPFPEAVACGDGHHCCPRGFHCSADGRSCFQRSGNNSVGAIQCPDSQFECPDFSTCCVMVDGSWGCCPMPQASCCEDRVHCCPHGAFCDLVHTRCITPTGTHPLAKKLPAQRTNRAVALSSSVMCPDARSRCPDGSTCCELPSGKYGCCPMPNATCCSDHLHCCPQDTVCDLIQSKCLSKENATTDLLTKLPAHTVGDVKCDMEVSCPDGYTCCRLQSGAWGCCPFTQAVCCEDHIHCCPAGFTCDTQKGTCEQGPHQVPWMEKAPAHLSLPDPQALKRDVPCDNVSSCPSSDTCCQLTSGEWGCCPIPEAVCCSDHQHCCPQGYTCVAEGQCQRGSEIVAGLEKMPARRASLSHPRDIGCDQHTSCPVGQTCCPSLGGSWACCQLPHAVCCEDRQHCCPAGYTCNVKARSCEKEVVSAQPATFLARSPHVGVKDVECGEGHFCHDNQTCCRDNRQGWACCPYRQGVCCADRRHCCPAGFRCAARGTKCLRREAPRWDAPLRDPALRQLL
partner: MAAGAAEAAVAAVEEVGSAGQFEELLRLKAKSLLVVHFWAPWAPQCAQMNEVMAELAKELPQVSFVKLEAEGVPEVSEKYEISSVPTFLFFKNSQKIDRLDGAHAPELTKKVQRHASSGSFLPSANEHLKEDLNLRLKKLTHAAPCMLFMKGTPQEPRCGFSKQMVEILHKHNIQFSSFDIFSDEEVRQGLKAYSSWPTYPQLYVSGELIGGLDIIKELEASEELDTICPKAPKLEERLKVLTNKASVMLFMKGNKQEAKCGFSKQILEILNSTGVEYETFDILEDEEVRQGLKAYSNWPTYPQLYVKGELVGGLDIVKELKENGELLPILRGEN
B5: Sialidase-2 (Homo sapiens), Q9Y3R4 (parent)
chain: MASLPVLQKESVFQSGAHAYRIPALLYLPGQQSLLAFAEQRASKKDEHAELIVLRRGDYDAPTHQVQWQAQEVVAQARLDGHRSMNPCPLYDAQTGTLFLFFIAIPGQVTEQQQLQTRANVTRLCQVTSTDHGRTWSSPRDLTDAAIGPAYREWSTFAVGPGHCLQLHDRARSLVVPAYAYRKLHPIQRPIPSAFCFLSHDHGRTWARGHFVAQDTLECQVAEVETGEQRVVTLNARSHLRARVQAQSTNDGLDFQESQLVKKLVEPPPQGCQGSVISFPSPRSGPGSPAQWLLYTHPTHSWQRADLGAYLNPRPPAPEAWSEPVLLAKGSCAYSDLQSMGTGPDGSPLFGCLYEANDYEEIVFLMFTLKQAFPAEYLPQ

Variants of: B1
Settings: with fam9b_human FAM9B
With P111L the “effect of a mutation on the interaction” value was “disrupting interaction strength”.

Variants of: B2
Settings: with aldoc_human ALDOC
For D183G, the “effect of a mutation on the interaction” value was “with no effect”.
In the case of C393Y, the “effect of a mutation on the interaction” value is reported as “with no effect”.
E261K was tested, and the “effect of a mutation on the interaction” value was “disrupting interaction strength”.

Variants of: B3
Settings: with kr109_human KRTAP10-9, P60411
For L107V, the “effect of a mutation on the interaction” value was “with no effect”.

Variants of: B4
Settings: with glrx3_human GLRX3, O76003
P248L was tested, and the “effect of a mutation on the interaction” value was “with no effect”.
In the case of A9D, the “effect of a mutation on the interaction” value is reported as “disrupting interaction strength”.
For P451L, the “effect of a mutation on the interaction” value was “disrupting interaction strength”.
For R432C, the “effect of a mutation on the interaction” value was “disrupting interaction strength”.

Variants of: B5
Settings: with nt2na_human NOTCH2NLA
R41Q was tested, and the “effect of a mutation on the interaction” value was “with no effect”.
